Assay [1] concerns Ramos B cells. Briefly: Subcellular distribution of AID fusion proteins determined by HCS microscopy. As to conditions: for Nuclear mCherry, mean: corrected for cytoplasmic baseline. Format: cell-based, human. Here is the method: Cells were fixed in 3.7% formaldehyde at a density of 2×10^6 cells/ml and stained with whole cell stain (HCS CellMask, Invitrogen) and DAPI (0.2 μg/ml). Fixed cells were then washed, resuspended in PBS and spun down in a 96-well μclear microplate (Greiner Bio One) for imaging. Cells were imaged by Thermo Scientific ArrayScan VTI HCS reader, analyzing 3000-6000 cells in each treatment group. Cells with very low or very high mCherry signals were eliminated, gating based on the mock transduction control (low) and eliminating cells with signals more than 5 SD from the mean (high). The HCS Colocalization BioApplication protocol was used to determine nuclear and whole cell boundaries in individual cells as defined by DAPI and HCS CellMask, respectively, thereby defining the cytoplasmic region as the region between nuclear and whole cell boundaries. The average signal in the nuclear and cytoplasmic compartments was determined in individual cells by measuring the total intensity of mCherry signal divided by area within each compartment. The ratio of nuclear to cytoplasmic signal (N/C) was calculated as the ratio of the average signals of nuclear and cytoplasmic mCherry.
G1, S, and G2/M phase cells were distinguished by ranking DNA content as determined by total DAPI signal, and specific fractions of the population assigned to G1, S and G2/M phases (FIG. 16A). HCS results were expressed in terms of average signal, to ensure independence of cell size, which increases during cell cycle (FIG. 16).
Cells were fixed and stained with whole cell stain (HCS CellMask, Invitrogen) and DAPI, washed, and imaged by Thermo Scientific ArrayScan VTI HCS reader, analyzing 3000-6000 cells in each treatment group. To enable accurate comparisons among different transductant populations, nuclear signal for each cell was corrected by subtraction of the corresponding baseline value, as established by linear regression analysis. HCS results were expressed in terms of average signal, to ensure independence of cell size.

In assay [2] the test system is Ramos B cells. Briefly: sIgM loss frequency assay (surrogate for SHM). Format: cell-based, human. As to conditions: day 7 after sorting mCherry+ cells. The source says:
sIgM loss frequency provides a convenient surrogate assay for SHM (45, 46). To determine fractions of sIgM− cells, 2-5×10^5 cells were fixed in 3.7% formaldehyde and stained with anti-human IgM (1:500, Souther Biotech), and sIgM− variants quantified by FACS as described (47). To establish that selective pressure was not sufficient to affect the frequency of sIgM loss, we assayed loss of mCherry signal posttransduction (FIG. 18).

B1: AID^F193A-mCherry: AID-mCherry carrying the AID F193A mutation, which prevents nuclear export (protein, UniProt Q9GZX7 1-198, looked up, variant F193A)
Single-stranded DNA cytosine …: MDSLLMNRRKFLYQFKNVRWAKGRRETYLCYVVKRRDSATSFSLDFGYLRNKNGCHVELLFLRYISDWDLDPGRCYRVTWFTSWSPCYDCARHVADFLRGNPNLSLRIFTARLYFCEDRKAEPEGLRRLHRAGVQIAIMTFKDYFYCWNTFVENHERTFKAWEGLHENSVRLSRQLRRILLPLYEVDDLRDAARTLGL
modifications: C-terminal mCherry fusion
notes: AID-mCherry carrying the AID F193A mutation, which prevents nuclear export
For B1, in the assay with Ramos B cells [1] (G1, S, G2/M phase cells), the “subcellular localization by HCS across cell cycle” value is “persistent nuclear localization”. In addition, the “Cytoplasmic mCherry, mean” value in the assay on Ramos B cells [1] (G1 phase cells) is on record as 66.4; in the assay on Ramos B cells [1] (G2/M phase cells), 60.2; with Ramos B cells [1] (S phase cells), 58.6; with Ramos B cells [1] (whole transductant population), 62.9. Also, the “Total mCherry, mean” value is 117.5 in the assay with Ramos B cells [1] (G1 phase cells), 109.7 in the assay with Ramos B cells [1] (G2/M phase cells), 103.2 with Ramos B cells [1] (S phase cells) and 111.4 in the assay on Ramos B cells [1] (whole transductant population). Also, the “Nuclear mCherry, mean” value in the assay with Ramos B cells [1] (G1 phase cells) is 75.4; in the assay on Ramos B cells [1] (G2/M phase cells) it was 63.6; with Ramos B cells [1] (S phase cells), 56.8; in the assay on Ramos B cells [1] (whole transductant population), 67.5. In addition, the sIgM loss rates result in the assay with Ramos B cells [2] is “greatly elevated”.

These data come from patent publication US20160369258A1, “RESTRICTING NUCLEAR PROTEIN TO SPECIFIC PHASES OF THE CELL CYCLE” (UNIVERSITY OF WASHINGTON, priority 2014, published 2016).
